The data set “SEC” deals with the molecule itself. Put plainly: SEC.
Substrate in data set [1]: CC(C(=O)O)C(=O)SCCNC(=O)CCNC(=O)[C@H](O)C(C)(C)COP(=O)(O)OP(=O)(O)OC[C@H]1O[C@@H](n2cnc3c(N)ncnc32)[C@H](O)[C@@H]1OP(=O)(O)O
Briefly: purified protein. Conditions: 50 mM HEPES-K pH 8.0, 2 mM EDTA, 0.3 mM DTNB, 37 °C.

Substrate in data set [2]: CC(C)(COP(=O)(O)OP(=O)(O)OC[C@H]1O[C@@H](n2cnc3c(N)ncnc32)[C@H](O)[C@@H]1OP(=O)(O)O)[C@@H](O)C(=O)NCCC(=O)NCCSC(=O)CCC(=O)O
Put plainly: purified protein. The conditions noted are these: 50 mM HEPES-K pH 8.0, 2 mM EDTA, 0.3 mM DTNB, 37 °C.

Substrate in data set [3]: CC(=O)SCCNC(=O)CCNC(=O)[C@H](O)C(C)(C)COP(=O)(O)OP(=O)(O)OC[C@H]1O[C@@H](n2cnc3c(N)ncnc32)[C@H](O)[C@@H]1OP(=O)(O)O
Put plainly: purified protein. The conditions noted are these: 50 mM HEPES-K pH 8.0, 2 mM EDTA, 0.3 mM DTNB, 37 °C.

Substrate in data set [4]: CC(C)(COP(=O)(O)OP(=O)(O)OC[C@H]1O[C@@H](n2cnc3c(N)ncnc32)[C@H](O)[C@@H]1OP(=O)(O)O)[C@@H](O)C(=O)NCCC(=O)NCCSC(=O)Cc1ccccc1
Briefly: purified protein. The conditions noted are these: 50 mM HEPES-K pH 8.0, 2 mM EDTA, 0.3 mM DTNB, 37 °C.

Substrate in data set [5]: CCCCCCCCCCCCCCCCCC(=O)SCCNC(=O)CCNC(=O)[C@H](O)C(C)(C)COP(=O)(O)OP(=O)(O)OC[C@H]1O[C@@H](n2cnc3c(N)ncnc32)[C@H](O)[C@@H]1OP(=O)(O)O
Briefly: purified protein. Conditions: 50 mM HEPES-K pH 8.0, 2 mM EDTA, 0.3 mM DTNB, 37 °C.

Substrate in data set [6]: CC(C)(COP(=O)(O)OP(=O)(O)OC[C@H]1O[C@@H](n2cnc3c(N)ncnc32)[C@H](O)[C@@H]1OP(=O)(O)O)[C@@H](O)C(=O)NCCC(=O)NCCSC(=O)C[C@@](C)(O)CC(=O)O
Put plainly: purified protein. The conditions noted are these: 50 mM HEPES-K pH 8.0, 2 mM EDTA, 0.3 mM DTNB, 37 °C.

Substrate in data set [7]: CC(O)CC(=O)SCCNC(=O)CCNC(=O)[C@H](O)C(C)(C)COP(=O)(O)OP(=O)(O)OC[C@H]1O[C@@H](n2cnc3c(N)ncnc32)[C@H](O)[C@@H]1OP(=O)(O)O
Briefly: purified protein. The conditions noted are these: 50 mM HEPES-K pH 8.0, 2 mM EDTA, 0.3 mM DTNB, 37 °C.

Substrate in data set [8]: CCCCCCCC(=O)SCCNC(=O)CCNC(=O)[C@H](O)C(C)(C)COP(=O)(O)OP(=O)(O)OC[C@H]1O[C@@H](n2cnc3c(N)ncnc32)[C@H](O)[C@@H]1OP(=O)(O)O
Briefly: purified protein. The conditions noted are these: 50 mM HEPES-K pH 8.0, 2 mM EDTA, 0.3 mM DTNB, 37 °C.

Substrate in data set [9]: CC(C)(COP(=O)(O)OP(=O)(O)OC[C@H]1O[C@@H](n2cnc3c(N)ncnc32)[C@H](O)[C@@H]1OP(=O)(O)O)[C@@H](O)C(=O)NCCC(=O)NCCSC(=O)CCCC(=O)O
Briefly: purified protein. The conditions noted are these: 50 mM HEPES-K pH 8.0, 2 mM EDTA, 0.3 mM DTNB, 37 °C.

Substrate in data set [10]: CCCCCCCCCCCCCCCC(=O)SCCNC(=O)CCNC(=O)[C@H](O)C(C)(C)COP(=O)(O)OP(=O)(O)OC[C@H]1O[C@@H](n2cnc3c(N)ncnc32)[C@H](O)[C@@H]1OP(=O)(O)O
Briefly: purified protein. Conditions: 50 mM HEPES-K pH 8.0, 2 mM EDTA, 0.3 mM DTNB, 37 °C.

Substrate in data set [11]: CCCCCC(=O)SCCNC(=O)CCNC(=O)[C@H](O)C(C)(C)COP(=O)(O)OP(=O)(O)OC[C@H]1O[C@@H](n2cnc3c(N)ncnc32)[C@H](O)[C@@H]1OP(=O)(O)O
Put plainly: purified protein. Conditions: 50 mM HEPES-K pH 8.0, 2 mM EDTA, 0.3 mM DTNB, 37 °C.

B1: PA5026 (natural protein, Pseudomonas aeruginosa)
chain: MPLPTELARHLTEEKIAFVQRSGLRAEVLEPGYVRLRMPGAGNENHIGSMYAGALFTLAELPGGALFLTSFDSARFYPIVKEMTLRFRRPAKGDIRVEARLDAERIRQLETEAGERGKAEYSLELQLTDEQGEVVAESAALYQLRSHARP
As a reminder, the stoichiometry N is a count of units in the complex or per binding partner. On to B1, for which, in “SEC”, the “stoichiometry N” value was determined as 2.

B2: PA1835 (natural protein, Pseudomonas aeruginosa)
chain: MSQMMQMYQQVGPAQFSAMIGQFAPYFASIAPQFVELRPGYAEVTFPKRREVLNHIGTVHAIALCNAAELAAGTMTDASIPAGHRWIPRGMTVEYLAKATGDVRAVADGSQIDWQATGNLVVPVVAYVDDKPVFRAEITMYVSQA
For B2, the “stoichiometry N” value in the data set “SEC” is 2.

B3: PA2801 (enzyme, Pseudomonas aeruginosa)
chain: MADRQLLHTAHIPVRWGDMDSYGHVNNTLYFQYLEEARVAWFETLGIDLEGAAEGPVVLQSLHTYLKPVVHPATVVVELYAGRLGTSSLVLEHRLHTLEDPQGTYGEGHCKLVWVRHAENRSTPVPDSIRAAIA
On to B3, for which, in “SEC”, the “stoichiometry N” value turned out to be 4.

B4: PA5202 (enzyme, Pseudomonas aeruginosa, UniProt Q9HTY7 1-129, looked up)
chain: MSEMPAREQMISAYSELVGLDPVSLGDGVAEVRLPMAAHLRNRGGVMHGGALFSLMDVTMGLACSSSHGFDRQSVTLECKINYIRAVADGEVRCVARVLHAGRRSLVVEAEVRQGDKLVAKGQGTFAQL
One may read the Km as the concentration of substrate that gives half-maximal velocity. In general, kcat refers to the maximal rate divided by the concentration of active sites. For orientation: kcat/Km means the second-order rate constant that governs catalysis at low substrate concentration. In the case of B4, the “stoichiometry N” value in the data set “SEC” was 4. Besides, the Km in “purified protein [1]” turned out to be 400 ± 40 µM; in “purified protein [2]” it was 100 ± 20 µM; in “purified protein [3]” it was 500 ± 100 µM; in the data set “purified protein [4]”, 1100 ± 10 µM; in the data set “purified protein [5]”, 5 ± 1 µM; in “purified protein [6]” it was 100 ± 10 µM. The Michaelis-Menten constant (Km) in the data set “purified protein [7]” is 500 ± 50 µM; in “purified protein [8]”, 400 ± 60 µM; in “purified protein [9]”, 700 ± 100 µM; in the data set “purified protein [10]” it was 20 ± 10 µM; in the data set “purified protein [11]”, 200 ± 20 µM. Besides, the kcat in the data set “purified protein [1]” is 0.3 ± 0.01 s⁻¹; in “purified protein [2]”, 0.8 ± 0.03 s⁻¹; in the data set “purified protein [3]”, 0.2 ± 0.03 s⁻¹; in “purified protein [4]” it was 0.1 ± 0.01 s⁻¹; in the data set “purified protein [5]”, 0.04 ± 0.003 s⁻¹; in “purified protein [7]” it was 2 ± 0.1 s⁻¹. Also, the catalytic constant (kcat) in the data set “purified protein [8]” is 2.4 ± 0.2 s⁻¹; in the data set “purified protein [9]”, 26.8 ± 0.9 s⁻¹; in “purified protein [10]” it was 0.3 ± 0.03 s⁻¹. Also, the kcat/Km in the data set “purified protein [1]” came to 800 M⁻¹ s⁻¹; in “purified protein [2]”, 7000 M⁻¹ s⁻¹; in “purified protein [3]” it was 400 M⁻¹ s⁻¹; in “purified protein [4]”, 100 M⁻¹ s⁻¹; in “purified protein [5]”, 8000 M⁻¹ s⁻¹; in the data set “purified protein [7]”, 4000 M⁻¹ s⁻¹. Besides, the values for the specificity constant (kcat/Km) in the data set “purified protein [8]”, in “purified protein [9]” and in “purified protein [10]” were 7000 M⁻¹ s⁻¹, 40000 M⁻¹ s⁻¹ and 13000 M⁻¹ s⁻¹, respectively.

B5: PA5185 (enzyme, Pseudomonas aeruginosa)
chain: MATAPRPLREQYLHFQPISTRWHDNDIYGHVNNVTYYAFFDTAVNTYLIERGGLDIQGGEVIGLVVSSSCDYFAPVAFPQRIEMGLRVARLGNSSVQYELALFLEGQREACAAGRFVHVFVERRSSRPVAIPQELRDALAALQSSAQ
Take B5: the “stoichiometry N” value in the data set “SEC” is 4.

Values taken from PMC3836677 (The Biochemical journal, 2012).
